Target: eIF4A1 (UniProt P60842)
Test: fluorescence anisotropy
Details: 20 mM Hepes/KOH pH 7.5, 100 (mM) KCl, 1 mM MgCl2, 1 mM AMP-PNP, 1 mM TCEP, 0.1% DMSO, +/-50 uM silvestrol (10 uM in Fig 4a legend), 60 min, 25 C; numeric Kd of …

eIF4A1, sequence (P60842 whole entry): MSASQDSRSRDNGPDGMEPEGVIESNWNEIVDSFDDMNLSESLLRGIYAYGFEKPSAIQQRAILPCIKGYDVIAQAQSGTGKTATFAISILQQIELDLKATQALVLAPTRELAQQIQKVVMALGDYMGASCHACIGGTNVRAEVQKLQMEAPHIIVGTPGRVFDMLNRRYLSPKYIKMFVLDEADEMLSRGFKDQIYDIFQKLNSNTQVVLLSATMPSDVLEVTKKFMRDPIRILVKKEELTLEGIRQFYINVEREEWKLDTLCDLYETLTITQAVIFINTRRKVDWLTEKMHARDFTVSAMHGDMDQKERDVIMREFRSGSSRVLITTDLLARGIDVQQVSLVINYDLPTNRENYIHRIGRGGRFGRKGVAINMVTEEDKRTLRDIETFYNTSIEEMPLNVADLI

Sequence: AGAGAGAGAGAGAGAGAGAG [(AG)10 ssRNA]
- Kd: 0.0033 mM

— article PMC6886185
